This note sets out measurements from patent US20240392004A1 (IMMUNOWAKE, published 2024).

The target in experiment [1] is T1, human PD-1 (human, UniProt Q15116 25-167, limits assumed).
T1 construct: also called hPD-1
Put plainly: Biacore and cell-based assays, calibrated by wildtype nivolumab binding affinity.

In experiment [2] the target is T2, human PD-1 on cells (HEK-PD-1 reporter cells; activated PBMC) (human, UniProt Q15116 25-288). As to the kind of experiment: cell-based or functional assay.
T2 sequence (Q15116 25-288): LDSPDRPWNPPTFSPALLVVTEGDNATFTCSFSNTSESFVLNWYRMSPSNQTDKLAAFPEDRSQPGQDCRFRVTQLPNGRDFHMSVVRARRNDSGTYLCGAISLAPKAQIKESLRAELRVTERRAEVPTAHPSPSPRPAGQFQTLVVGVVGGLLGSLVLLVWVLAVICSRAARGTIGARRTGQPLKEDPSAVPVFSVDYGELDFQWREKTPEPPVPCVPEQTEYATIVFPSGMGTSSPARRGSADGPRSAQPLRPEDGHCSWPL
In experiment [3] the target is human IL-12 receptor complex (IL-12Rβ1 and IL-12Rβ2) (human, UniProt P42701 24-662; Q99665 24-862). Put plainly: cell-based or functional assay.
Chain of human IL-12 receptor complex (IL-12Rβ1 and IL-12Rβ2) (Q99665 24-862, chain 2 of 2, other chains not shown): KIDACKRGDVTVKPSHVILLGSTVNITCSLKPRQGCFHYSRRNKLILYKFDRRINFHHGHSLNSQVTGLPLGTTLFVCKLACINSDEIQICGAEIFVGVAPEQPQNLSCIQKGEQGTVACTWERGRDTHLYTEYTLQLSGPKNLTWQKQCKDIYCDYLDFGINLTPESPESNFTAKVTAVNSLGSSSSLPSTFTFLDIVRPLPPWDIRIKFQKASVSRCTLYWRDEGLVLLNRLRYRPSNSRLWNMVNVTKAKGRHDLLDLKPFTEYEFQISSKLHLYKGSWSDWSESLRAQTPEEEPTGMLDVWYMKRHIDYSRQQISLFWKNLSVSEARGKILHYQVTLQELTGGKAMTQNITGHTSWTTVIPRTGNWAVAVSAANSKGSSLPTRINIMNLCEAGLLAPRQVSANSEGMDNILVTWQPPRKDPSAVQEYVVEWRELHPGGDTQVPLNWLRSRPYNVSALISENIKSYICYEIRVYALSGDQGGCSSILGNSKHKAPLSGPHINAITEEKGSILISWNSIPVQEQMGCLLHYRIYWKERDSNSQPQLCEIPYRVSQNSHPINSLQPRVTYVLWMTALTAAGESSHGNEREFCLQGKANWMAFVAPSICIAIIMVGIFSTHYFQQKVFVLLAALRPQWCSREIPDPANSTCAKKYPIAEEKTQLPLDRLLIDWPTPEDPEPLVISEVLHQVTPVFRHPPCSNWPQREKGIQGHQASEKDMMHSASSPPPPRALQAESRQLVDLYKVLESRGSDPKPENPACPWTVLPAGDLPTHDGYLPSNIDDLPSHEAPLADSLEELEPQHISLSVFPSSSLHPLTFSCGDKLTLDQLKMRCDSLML
Experiment [4] addresses T2, human PD-1 on cells (HEK-PD-1 reporter …). Put plainly: cell-based or functional assay. This is another data set of the same source.
The target in experiment [5] is T3, IFN-γ receptor (IFNGR1 and IFNGR2) (UniProt P15260 18-489; P38484 22-337, limits assumed).
T3 sequence (looked up) 1: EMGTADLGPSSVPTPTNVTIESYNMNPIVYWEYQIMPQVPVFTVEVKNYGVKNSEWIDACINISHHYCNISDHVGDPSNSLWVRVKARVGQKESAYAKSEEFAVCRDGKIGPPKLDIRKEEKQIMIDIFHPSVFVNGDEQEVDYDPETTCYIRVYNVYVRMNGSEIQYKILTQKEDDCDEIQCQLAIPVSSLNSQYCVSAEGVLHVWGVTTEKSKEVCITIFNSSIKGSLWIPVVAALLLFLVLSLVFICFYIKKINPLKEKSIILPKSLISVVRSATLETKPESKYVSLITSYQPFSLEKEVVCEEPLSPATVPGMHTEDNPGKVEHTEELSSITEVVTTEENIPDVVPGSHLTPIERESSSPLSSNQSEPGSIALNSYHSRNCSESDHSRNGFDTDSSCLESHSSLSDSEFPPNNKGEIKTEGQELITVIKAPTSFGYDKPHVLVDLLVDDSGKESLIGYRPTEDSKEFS
T3 sequence (looked up) 2: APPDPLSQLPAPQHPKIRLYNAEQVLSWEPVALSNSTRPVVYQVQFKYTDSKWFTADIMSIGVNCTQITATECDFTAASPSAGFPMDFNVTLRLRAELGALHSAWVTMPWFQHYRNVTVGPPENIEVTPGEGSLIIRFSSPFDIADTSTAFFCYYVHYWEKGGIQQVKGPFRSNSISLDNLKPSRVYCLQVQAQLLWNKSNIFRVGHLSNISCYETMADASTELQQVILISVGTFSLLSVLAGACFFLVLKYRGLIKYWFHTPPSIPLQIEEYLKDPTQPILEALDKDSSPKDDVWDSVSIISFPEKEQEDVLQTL
As to the kind of experiment: cell-based or functional assay.

Where a chain is given by its changes, count along the chain named. Names and notes keep the numbering of the source.

T1 sequence (Q15116 25-167 limits assumed): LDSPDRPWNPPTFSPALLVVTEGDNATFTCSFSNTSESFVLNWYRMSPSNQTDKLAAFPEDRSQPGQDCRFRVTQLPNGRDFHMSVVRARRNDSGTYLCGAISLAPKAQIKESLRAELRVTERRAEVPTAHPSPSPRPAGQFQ

B1: anti-PD-1 antibody HC-CDR3(D100G) (antibody, V domains shown)
VH: QVQLVESGGGVVQPGRSLRLDCKASGITFSNSGMHWVRQAPGKGLEWVAVIWYDGSKRYYADSVKGRFTISRDNSKNTLFLQMNSLRAEDTAVYYCATNGDYWGQGTLVTVSS
VL: EIVLTQSPATLSLSPGERATLSCRASQSVSSYLAWYQQKPGQAPRLLIYDASNRATGIPARFSGSGSGTDFTLTISSLEPEDFAVYYCQQSSNWPRTFGQGTKVEIKR
notes: constant parts as m82
In the case of B1, the dissociation constant (Kd) in experiment [1] was found to be 130 nM.

B2: anti-PD-1 antibody HC-CDR3(D100N) (antibody, V domains shown)
VH: B1 VH with G100N
VL: B1 VL
notes: constant parts as m82
The molecule B2 gave a Kd in experiment [1] of 25 nM.

B3: PD-L1(I54Q/Y56F/E58M/R113T/M115L/S117A/G119K)-Fc/IL-12(E59A/F60A) (IL-12 at C-terminus of Fc) (Fc fusion)
chain 1: FTVTVPKDLYVVEYGSNMTIECKFPVEKQLDLAALQVFWMMEDKNIIQFVHGEEDLKVQHSSYRQRARLLKDQLSLGNAALQITDVKLQDAGVYTCLIAYKGADYKRITVKVNAPYNKINQRILVVDPVTSEHELTCQAEGYPKAEVIWTSSDHQVLSGKTTTTNSKREEKLFNVTSTLRINTTTNEIFYCTFRRLDPEENHTAELVIPELPLAHPPNERGSGDKTHTCPPCPAPEKKGGPSVFLFPPKPKDTLMISRTPEVTCVVVDVSHEDPEVKFNWYVDGVEVHNAKTKPREEQYNSTYRVVSVLTVLHQDWLNGKEYKCKVSNKALPAPIEKTISKAKGQPREPQVYVLPPSREEMTKNQVSLLCLVKGFYPSDIAVEWESNGQPENRYMTWPPVLDSDGSFFLYSKLTVDKSRWQQGNVFSCSVMHEALHNHYTQKSLSLSPGK
chain 2: FTVTVPKDLYVVEYGSNMTIECKFPVEKQLDLAALQVFWMMEDKNIIQFVHGEEDLKVQHSSYRQRARLLKDQLSLGNAALQITDVKLQDAGVYTCLIAYKGADYKRITVKVNAPYNKINQRILVVDPVTSEHELTCQAEGYPKAEVIWTSSDHQVLSGKTTTTNSKREEKLFNVTSTLRINTTTNEIFYCTFRRLDPEENHTAELVIPELPLAHPPNERGSGDKTHTCPPCPAPEDEGGPSVFLFPPKPKDTLMISRTPEVTCVVVDVSHEDPEVKFNWYVDGVEVHNAKTKPREEQYNSTYRVVSVLTVLHQDWLNGKEYKCKVSNKALPAPIEKTISKAKGQPREPQVYVYPPSREEMTKNQVSLTCLVKGFYPSDIAVEWESNGQPENNYKTTPPVLDEDGSFALVSKLTVDKSRWQQGNVFSCSVMHEALHNHYTQKSLSLSPGKGGGGSGGGGSGGGGSIWELKKDVYVVELDWYPDAPGEMVVLTCDTPEEDGITWTLDQSSEVLGSGKTLTIQVKAAGDAGQYTCHKGGEVLSHSLLLLHKKEDGIWSTDILKDQKEPKNKTFLRCEAKNYSGRFTCWWLTTISTDLTFSVKSSRGSSDPQGVTCGAATLSAERVRGDNKEYEYSVECQEDSACPAAEESLPIEVMVDAVHKLKYENYTSSFFIRDIIKPDPPKNLQLKPLKNSRQVEVSWEYPDTWSTPHSYFSLTFCVQVQGKSKREKKDRVFTDKTSATVICRKNASISVRAQDRYYSSSWSEWASVPCSGGGGSGGGGSGGGGSGGGGSGRNLPVATPDPGMFPCLHHSQNLLRAVSNMLQKARQTLEFYPCTSEEIDHEDITKDKTSTVEACLPLELTKNESCLNSRETSFITNGSCLASRKTSFMMALCLSSIYEDLKMYQVEFKTMNAKLLMDPKRQIFLDQNMLAVIDELMQALNFNSETVPQKSSLEEPDFYKTKIKLCILLHAFRIRAVTIDRVMSYLNAS
As for B3, the “Biological activity of IL-12, HEK-PD-1-IL-12 reporter assay, % of rIL-12” value (“Biological activity … % of rIL-12” below) in experiment [2] is 189%.

B4: IL-12(E59A/F60A)/PD-L1(I54Q/Y56F/E58M/R113T/M115L/S117A/G119K)-Fc (IL-12 at hinge) (Fc fusion)
chain 1: B3 chain 1
chain 2: FTVTVPKDLYVVEYGSNMTIECKFPVEKQLDLAALQVFWMMEDKNIIQFVHGEEDLKVQHSSYRQRARLLKDQLSLGNAALQITDVKLQDAGVYTCLIAYKGADYKRITVKVNAPYNKINQRILVVDPVTSEHELTCQAEGYPKAEVIWTSSDHQVLSGKTTTTNSKREEKLFNVTSTLRINTTTNEIFYCTFRRLDPEENHTAELVIPELPLAHPPNERGSGIWELKKDVYVVELDWYPDAPGEMVVLTCDTPEEDGITWTLDQSSEVLGSGKTLTIQVKAAGDAGQYTCHKGGEVLSHSLLLLHKKEDGIWSTDILKDQKEPKNKTFLRCEAKNYSGRFTCWWLTTISTDLTFSVKSSRGSSDPQGVTCGAATLSAERVRGDNKEYEYSVECQEDSACPAAEESLPIEVMVDAVHKLKYENYTSSFFIRDIIKPDPPKNLQLKPLKNSRQVEVSWEYPDTWSTPHSYFSLTFCVQVQGKSKREKKDRVFTDKTSATVICRKNASISVRAQDRYYSSSWSEWASVPCSGGGGSGGGGSGGGGSGGGGSGRNLPVATPDPGMFPCLHHSQNLLRAVSNMLQKARQTLEFYPCTSEEIDHEDITKDKTSTVEACLPLELTKNESCLNSRETSFITNGSCLASRKTSFMMALCLSSIYEDLKMYQVEFKTMNAKLLMDPKRQIFLDQNMLAVIDELMQALNFNSETVPQKSSLEEPDFYKTKIKLCILLHAFRIRAVTIDRVMSYLNASDKTHTCPPCPAPEDEGGPSVFLFPPKPKDTLMISRTPEVTCVVVDVSHEDPEVKFNWYVDGVEVHNAKTKPREEQYNSTYRVVSVLTVLHQDWLNGKEYKCKVSNKALPAPIEKTISKAKGQPREPQVYVYPPSREEMTKNQVSLTCLVKGFYPSDIAVEWESNGQPENNYKTTPPVLDEDGSFALVSKLTVDKSRWQQGNVFSCSVMHEALHNHYTQKSLSLSPGK
Consider B4, for which the “Biological activity … % of rIL-12” value in experiment [2] was determined as 126%.

B5: PD-L1(I54Q/Y56F/E58M/R113T/M115L/S117A/G119K)-Fc/IL-12(F60A) (IL-12 at C-terminus of Fc) (Fc fusion)
chain 1: B3 chain 1
chain 2: B3 chain 2 with A524E
As to B5, the “Biological activity … % of rIL-12” value in experiment [2] was 234%.

B6: IL-12(F60A)/PD-L1(I54Q/Y56F/E58M/R113T/M115L/S117A/G119K)-Fc (IL-12 at hinge) (Fc fusion)
chain 1: B3 chain 1
chain 2: B4 chain 2 with A282E
As for B6, the “Biological activity … % of rIL-12” value in experiment [2] was determined as 234%.

B7: IL-12(E59A/F60A)/IFN-γ(A23V/A23V)/PD-L2(mut2)-Fc (Fc fusion)
chain 1: LFTVTVPKELYIIEHGSNVTLECNFDTGSHVNLGAITAVLQKVENDTSPHRERATLLEEQLPLGKASFHIPQVQVRDEGQYQCIIIYGVAWDYKYLTLKVKASYRKINTHILKVPETDEVELTCQATGYPLAEVSWPNVSVPANTSHSRTPEGLYQVTSVLRLKPPPGRNFSCVFWNTHVRELTLASIDLQSQMEPRTHPTGGGGSGGGIWELKKDVYVVELDWYPDAPGEMVVLTCDTPEEDGITWTLDQSSEVLGSGKTLTIQVKAAGDAGQYTCHKGGEVLSHSLLLLHKKEDGIWSTDILKDQKEPKNKTFLRCEAKNYSGRFTCWWLTTISTDLTFSVKSSRGSSDPQGVTCGAATLSAERVRGDNKEYEYSVECQEDSACPAAEESLPIEVMVDAVHKLKYENYTSSFFIRDIIKPDPPKNLQLKPLKNSRQVEVSWEYPDTWSTPHSYFSLTFCVQVQGKSKREKKDRVFTDKTSATVICRKNASISVRAQDRYYSSSWSEWASVPCSGGGGSGGGSGGGGSRNLPVATPDPGMFPCLHHSQNLLRAVSNMLQKARQTLEFYPCTSEEIDHEDITKDKTSTVEACLPLELTKNESCLNSRETSFITNGSCLASRKTSFMMALCLSSIYEDLKMYQVEFKTMNAKLLMDPKRQIFLDQNMLAVIDELMQALNFNSETVPQKSSLEEPDFYKTKIKLCILLHAFRIRAVTIDRVMSYLNASGGGGSGGGDKTHTCPPCPAPEDEGGPSVFLFPPKPKDTLMISRTPEVTCVVVDVSHEDPEVKFNWYVDGVEVHNAKTKPREEQYNSTYRVVSVLTVLHQDWLNGKEYKCKVSNKALPAPIEKTISKAKGQPREPQVYVYPPSREEMTKNQVSLTCLVKGFYPSDIAVEWESNGQPENNYKTTPPVLDEDGSFALVSKLTVDKSRWQQGNVFSCSVMHEALHNHYTQKSLSLSPGK
chain 2: LFTVTVPKELYIIEHGSNVTLECNFDTGSHVNLGAITAVLQKVENDTSPHRERATLLEEQLPLGKASFHIPQVQVRDEGQYQCIIIYGVAWDYKYLTLKVKASYRKINTHILKVPETDEVELTCQATGYPLAEVSWPNVSVPANTSHSRTPEGLYQVTSVLRLKPPPGRNFSCVFWNTHVRELTLASIDLQSQMEPRTHPTGGGSGQDPYVKEAENLKKYFNAGHSDVVDNGTLFLGILKNWKEESDRKIMQSQIVSFYFKLFKNFKDDQSIQKSVETIKEDMNVKFFNSNKKKRDDFEKLTNYSVTDLNVQRKAIHELIQVMAELSPAAKTGKRKRSQMLFRGGGGSGGGGSGGGGSGGGGSQDPYVKEAENLKKYFNAGHSDVVDNGTLFLGILKNWKEESDRKIMQSQIVSFYFKLFKNFKDDQSIQKSVETIKEDMNVKFFNSNKKKRDDFEKLTNYSVTDLNVQRKAIHELIQVMAELSPAAKTGKRKRSQMLFRGGGGGSGGGDKTHTCPPCPAPEKKGGPSVFLFPPKPKDTLMISRTPEVTCVVVDVSHEDPEVKFNWYVDGVEVHNAKTKPREEQYNSTYRVVSVLTVLHQDWLNGKEYKCKVSNKALPAPIEKTISKAKGQPREPQVYVLPPSREEMTKNQVSLLCLVKGFYPSDIAVEWESNGQPENRYMTWPPVLDSDGSFFLYSKLTVDKSRWQQGNVFSCSVMHEALHNHYTQKSLSLSPGK
Turning to B7, in experiment [3], the “IL-12 signal transduction, HEK-IL-12” value was < 0.2%. Moreover, in experiment [4], the “IFN-γ signal transduction, HEK-IFN-γ-PD-1” value stood at 35% and the “IL-12 signal transduction, HEK-IL-12-PD-1” value turned out to be 45%. Besides, the “IFN-γ signal transduction, HEK-IFN-γ” value in experiment [5] is < 0.1%.

B8: IL-12(E59A/F60A)/IFN-γ(A23V/A23V)/PD-L2(mut4)-Fc (Fc fusion)
chain 1: B7 chain 1 with T37V, Q41L
chain 2: B7 chain 2 with T37V, Q41L
Take B8: the “IL-12 signal transduction, HEK-IL-12” value in experiment [3] is < 0.2%. In addition, in experiment [4], the “IFN-γ signal transduction, HEK-IFN-γ-PD-1” value was 40% and the “IL-12 signal transduction, HEK-IL-12-PD-1” value was found to be 49%. Further, in experiment [5], the “IFN-γ signal transduction, HEK-IFN-γ” value was < 0.1%.
